Series [1] has as its system histone H1 (calf thymus).
Series [2] addresses histone H2A (calf thymus) (UniProt P0C0S9).
Series [3] deals with histone H2B (calf thymus) (UniProt P62808).
Series [4] deals with histone H3 (calf thymus), intact protein (UniProt P68432).
For series [5], the system named is histone H3 N-terminal tail peptide (residues 1-20) di-acetylated at lysines 9 and 14.
Series [6] deals with histone H4 (calf thymus) (UniProt P62803).
The subject of series [7] is unacetylated histone H3 N-terminal tail peptide (residues 1-20).

Consider “recombinant 6xHis-tagged full-length yeast Sir2p”, for which the “ADP-ribosylation (transfer of 32P from NAD, SDS-PAGE)” value in series [1] is “but not to H1, H2A and H4”; in series [2] it was “but not to H1, H2A and H4”; in series [3], “transferred radioactive ADP-ribose to H2B and H3”; in series [4] it was “transferred radioactive ADP-ribose to H2B and H3”; in series [6] it was “but not to H1, H2A and H4”. In addition, in series [4], the “transfer of 32P from NAD (SDS-PAGE)” value is given as 32P was transferred from NAD to intact histone H3. Further, the “ADP-ribosylation of peptide (32P-NAD, thin layer chromatography)” value in series [5] is “Both the yeast and mouse Sir2 modified only the diacetylated H3 tail peptide”; in series [7], “modified only the diacetylated H3 tail peptide (unacetylated peptide not modified)”. Moreover, in series [5], the “NAD-dependent deacetylation (HPLC, areas under peaks 1, 2 and 4)” value is “at least 27% of the input peptide was deacetylated by Sir2p”. In addition, the “deacetylation of Lys9 in peak 4 (Edman sequencing)” value in series [5] is on record as “about 23% of Lys9”. Also, in series [5], the “deacetylation of Lys14 in peak 4 (Edman sequencing)” value is recorded as 27% of Lys 14.

(Values after patent US8642284.)
